The assay concerns the target T1, human MU-1 Ig fusion protein (human, UniProt Q9HBE5 20-235).
T1 construct: also called MUFc; IL-21R; not shown: Ig part of the fusion protein
Put plainly: Biacore, MU-1 Ig fusion protein immobilized on chip. The protocol: Both human and murine Ig fusion proteins were constructed and immobilized on Biacore chips in an effort to identify the ligand for MU-1. A variety of cell culture conditioned media as well as a panel of known cytokines were evaluated for binding to MU-1. Some cytokines were also tested in combination with other receptor chains in the family to consider the possibility that MU-1 may require a second receptor chain for ligand binding. The following cytokines were tested and found to be negative for MU-1 binding: mIL-2, hIL-2, hIL-15, mIL-7, TSLP, TSLP+IL-7, TSLP+IL-7R, TSLP+IL-7g, TSLP+IL-2, TSLP+IL-2+IL-2Rbeta, IL2-Rbeta, IL-2Rgamma, IL-7R, IL-2+IL-2Rbeta, IL-2+IL-2Rgamma, IL-15+IL-2Rbeta, IL-15+IL-2Rgamma, IL-7+IL-2Rgamma, IL-2+IL-7R, IL-15+IL-7R, IL-7+IL-7R. Known receptors have been immobilized as well and tested for MUFc binding with negative results. IL-15 will bind to IL-2Rb but not IL-2Rg or MUFc.
(In SPR one partner is held on a chip, and binding of the other changes the refractive index at the surface.)

T1 sequence (Q9HBE5 20-235): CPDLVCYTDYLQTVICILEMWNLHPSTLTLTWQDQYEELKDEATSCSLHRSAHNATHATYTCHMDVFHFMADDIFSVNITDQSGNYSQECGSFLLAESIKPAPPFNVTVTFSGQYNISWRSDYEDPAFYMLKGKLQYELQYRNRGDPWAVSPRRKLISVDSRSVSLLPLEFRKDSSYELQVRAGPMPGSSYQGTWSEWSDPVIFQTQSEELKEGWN

B1: mIL-7 (ligand, murine, UniProt P10168 26-154, looked up)
chain: ECHIKDKEGKAYESVLMISIDELDKMTGTDSNCPNNEPNFFRKHVCDDTKEAAFLNRAARKLKQFLKMNISEEFNVHLLTVSQGTQTLVNCTSKEEKNVKEQKKNDACFLKRLLREIKTCWNKILKGSI
On to B1, for which the binding result is “no binding”.

B2: mIL-2 (ligand, murine, UniProt P04351 21-169, looked up)
chain: APTSSSTSSSTAEAQQQQQQQQQQQQHLEQLLMDLQELLSRMENYRNLKLPRMLTFKFYLPKQATELKDLQCLEDELGPLRHVLDLTQSKSFQLEDAENFISNIRVTVVKLKGSDNTFECQFDDESATVVDFLRRWIAFCQSIISTSPQ
As to B2, the binding result is recorded as “no binding”.

These data come from US20080241098A1 (Pfizer, published 2008).
